Test results from patent publication US20200199204A1 (UNITED STATES OF AMERICA AS REPRESENTED BY THE SECRETARY …, published 2020).

How the values were obtained:
Test in all cases: cell-based or functional assay
HIV-1 Env of CAP256.PI = HIV-1 Env of CAP256.PI (HIV-1)
HIV-1 Env of CAP256.SU = HIV-1 Env of CAP256.SU (HIV-1)
HIV-1 Env of 96ZM651.02 = HIV-1 Env of 96ZM651.02 (HIV-1)
HIV-1 Env of CAP210.E8 = HIV-1 Env of CAP210.E8 (HIV-1)
HIV-1 Env of CAP244.D3 = HIV-1 Env of CAP244.D3 (HIV-1)
HIV-1 Env of DU156.12 = HIV-1 Env of DU156.12 (HIV-1)
HIV-1 Env of DU172.17 = HIV-1 Env of DU172.17 (HIV-1)
HIV-1 Env of DU422.01 = HIV-1 Env of DU422.01 (HIV-1)
HIV-1 Env of ZM109.4 = HIV-1 Env of ZM109.4 (HIV-1)
HIV-1 Env of ZM135.10a = HIV-1 Env of ZM135.10a (HIV-1)
HIV-1 Env of ZM197.7 = HIV-1 Env of ZM197.7 (HIV-1)
HIV-1 Env of ZM214.15 = HIV-1 Env of ZM214.15 (HIV-1)
HIV-1 Env of ZM249.1 = HIV-1 Env of ZM249.1 (HIV-1)
HIV-1 Env of 0260.v5.c36 = HIV-1 Env of 0260.v5.c36 (HIV-1)
HIV-1 Env of BG505.w6m = HIV-1 Env of BG505.w6m (HIV-1)
HIV-1 Env of KER2008.12 = HIV-1 Env of KER2008.12 (HIV-1)
HIV-1 Env of MB201 = HIV-1 Env of MB201 (HIV-1)
HIV-1 Env of MB539.2B7 = HIV-1 Env of MB539.2B7 (HIV-1)
HIV-1 Env of Q168.a2 = HIV-1 Env of Q168.a2 (HIV-1)
HIV-1 Env of Q23.17 = HIV-1 Env of Q23.17 (HIV-1)
HIV-1 Env of Q259.d2.17 = HIV-1 Env of Q259.d2.17 (HIV-1)
HIV-1 Env of Q461.e2 = HIV-1 Env of Q461.e2 (HIV-1)
HIV-1 Env of Q769.d22 = HIV-1 Env of Q769.d22 (HIV-1)
HIV-1 Env of Q842.d12 = HIV-1 Env of Q842.d12 (HIV-1)
HIV-1 Env of RW020.2 = HIV-1 Env of RW020.2 (HIV-1)
HIV-1 Env of UG037.8 = HIV-1 Env of UG037.8 (HIV-1)
HIV-1 Env of 6535.3 = HIV-1 Env of 6535.3 (HIV-1)
HIV-1 Env of AC10.29 = HIV-1 Env of AC10.29 (HIV-1)
HIV-1 Env of CAAN.A2 = HIV-1 Env of CAAN.A2 (HIV-1)
HIV-1 Env of PVO.04 = HIV-1 Env of PVO.04 (HIV-1)
HIV-1 Env of QH0692.42 = HIV-1 Env of QH0692.42 (HIV-1)
HIV-1 Env of REJO.67 = HIV-1 Env of REJO.67 (HIV-1)
HIV-1 Env of RHPA.7 = HIV-1 Env of RHPA.7 (HIV-1)
HIV-1 Env of SC422.8 = HIV-1 Env of SC422.8 (HIV-1)
HIV-1 Env of THRO.18 = HIV-1 Env of THRO.18 (HIV-1)
HIV-1 Env of TRJO.58 = HIV-1 Env of TRJO.58 (HIV-1)
HIV-1 Env of TRO.11 = HIV-1 Env of TRO.11 (HIV-1)
HIV-1 Env of WITO.33 = HIV-1 Env of WITO.33 (HIV-1)
HIV-1 Env of 6405.v4.c34 = HIV-1 Env of 6405.v4.c34 (HIV-1)
HIV-1 Env of C1080.c3 = HIV-1 Env of C1080.c3 (HIV-1)
HIV-1 Env of CM244.ec1 = HIV-1 Env of CM244.ec1 (HIV-1)
HIV-1 Env of CNE3 = HIV-1 Env of CNE3 (HIV-1)
HIV-1 Env of TH976.17 = HIV-1 Env of TH976.17 (HIV-1)
Env of SIVmac251.30 = Env of SIVmac251.30 (SIV (SIVmac251))

B1: CAP256-VRC26.25 (antibody, V domains shown)
VH: QVQLVESGGGVVQPGTSLRLSCAASQFRFDGYGMHWVRQAPGKGLEWVASISHDGIKKYHAEKVWGRFTISRDNSKNTLYLQMNSLRPEDTALYYCAKDLREDECEEWWSDYYDFGKQLPCAKSRGGLVGIADNWGQGTMVTVSS
VL: QSVLTQPPSVSAAPGQKVTISCSGNTSNIGNNFVSWYQQRPGRAPQLLIYETDKRPSGIPDRFSASKSGTSGTLAITGLQTGDEADYYCATWAASLSSARVFGTGTQVIVLG
HIV-1 Env of CAP256.PI
  IC50 (neutralization, TZM-bl): 1.33 µg/mL
HIV-1 Env of CAP256.SU
  IC50 (neutralization, TZM-bl): 0.001 µg/mL
HIV-1 Env of 96ZM651.02
  IC50 (neutralization, TZM-bl): 0.173 µg/mL
HIV-1 Env of CAP210.E8
  IC50 (neutralization, TZM-bl): 0.001 µg/mL
HIV-1 Env of CAP244.D3
  IC50 (neutralization, TZM-bl): > 50 µg/mL
HIV-1 Env of DU156.12
  IC50 (neutralization, TZM-bl): 0.002 µg/mL
HIV-1 Env of DU172.17
  IC50 (neutralization, TZM-bl): > 50 µg/mL
HIV-1 Env of DU422.01
  IC50 (neutralization, TZM-bl): 0.003 µg/mL
HIV-1 Env of ZM109.4
  IC50 (neutralization, TZM-bl): 0.001 µg/mL
HIV-1 Env of ZM135.10a
  IC50 (neutralization, TZM-bl): > 50 µg/mL
HIV-1 Env of ZM197.7
  IC50 (neutralization, TZM-bl): 0.002 µg/mL
HIV-1 Env of ZM214.15
  IC50 (neutralization, TZM-bl): 0.006 µg/mL
HIV-1 Env of ZM249.1
  IC50 (neutralization, TZM-bl): 0.001 µg/mL
HIV-1 Env of 0260.v5.c36
  IC50 (neutralization, TZM-bl): 6.54 µg/mL
HIV-1 Env of BG505.w6m
  IC50 (neutralization, TZM-bl): 0.001 µg/mL
HIV-1 Env of KER2008.12
  IC50 (neutralization, TZM-bl): 0.005 µg/mL
HIV-1 Env of MB201
  IC50 (neutralization, TZM-bl): > 50 µg/mL
HIV-1 Env of MB539.2B7
  IC50 (neutralization, TZM-bl): 0.186 µg/mL
HIV-1 Env of Q168.a2
  IC50 (neutralization, TZM-bl): 0.001 µg/mL
HIV-1 Env of Q23.17
  IC50 (neutralization, TZM-bl): 0.001 µg/mL
HIV-1 Env of Q259.d2.17
  IC50 (neutralization, TZM-bl): 0.002 µg/mL
HIV-1 Env of Q461.e2
  IC50 (neutralization, TZM-bl): 0.007 µg/mL
HIV-1 Env of Q769.d22
  IC50 (neutralization, TZM-bl): > 50 µg/mL
HIV-1 Env of Q842.d12
  IC50 (neutralization, TZM-bl): 0.005 µg/mL
HIV-1 Env of RW020.2
  IC50 (neutralization, TZM-bl): > 50 µg/mL
HIV-1 Env of UG037.8
  IC50 (neutralization, TZM-bl): > 50 µg/mL
HIV-1 Env of 6535.3
  IC50 (neutralization, TZM-bl): > 50 µg/mL
HIV-1 Env of AC10.29
  IC50 (neutralization, TZM-bl): 0.077 µg/mL
HIV-1 Env of CAAN.A2
  IC50 (neutralization, TZM-bl): > 50 µg/mL
HIV-1 Env of PVO.04
  IC50 (neutralization, TZM-bl): 0.072 µg/mL
HIV-1 Env of QH0692.42
  IC50 (neutralization, TZM-bl): > 50 µg/mL
HIV-1 Env of REJO.67
  IC50 (neutralization, TZM-bl): > 50 µg/mL
HIV-1 Env of RHPA.7
  IC50 (neutralization, TZM-bl): > 50 µg/mL
HIV-1 Env of SC422.8
  IC50 (neutralization, TZM-bl): 47.2 µg/mL
HIV-1 Env of THRO.18
  IC50 (neutralization, TZM-bl): 19.8 µg/mL
HIV-1 Env of TRJO.58
  IC50 (neutralization, TZM-bl): > 50 µg/mL
HIV-1 Env of TRO.11
  IC50 (neutralization, TZM-bl): > 50 µg/mL
HIV-1 Env of WITO.33
  IC50 (neutralization, TZM-bl): > 50 µg/mL
HIV-1 Env of 6405.v4.c34
  IC50 (neutralization, TZM-bl): > 50 µg/mL
HIV-1 Env of C1080.c3
  IC50 (neutralization, TZM-bl): 0.004 µg/mL
HIV-1 Env of CM244.ec1
  IC50 (neutralization, TZM-bl): 0.092 µg/mL
HIV-1 Env of CNE3
  IC50 (neutralization, TZM-bl): > 50 µg/mL
HIV-1 Env of TH976.17
  IC50 (neutralization, TZM-bl): 0.106 µg/mL
Env of SIVmac251.30
  IC50 (neutralization, TZM-bl): > 50 µg/mL
